This is an account of results in patent US20240368286A1 (SHANGHAI JMT BIO TECHNOLOGY, published 2024).

Broadly, the Kd is the equilibrium constant for the complex coming apart. A word on the koff: it is the first-order rate constant of dissociation. What is called EC50 is the concentration needed to bring the measured effect to its halfway point.

Assay [1] has as its target Cynomolgus monkey GFRAL protein (Biacore analyte) (cynomolgus monkey). Briefly: Biacore SPR, humanized antibody captured via murine anti-human Fc on CM5, GFRAL injected in 2-fold dilutions, 25 C. On the procedure:
(§1) Specific protocols are as follows.
(§2) The surface of the CM5 chip was activated using 400 mM EDC and 100 mM NHS at a flow rate of 10 μl/min according to the instructions for the amino-coupled kit (Cat. No. BR100050, Cytiva). Then, the murine anti-human Fc antibody was immobilized in the test channel (Fc2) and the reference channel (Fc1) of the CM5 chip. Finally, the chip was blocked with 1 M ethanolamine at a flow rate of 10 μl/min; The humanized antibody (˜300 RU) diluted to 5 μg/ml was then captured on the assay channel (Fc2), and ligand capture were not carried out on the reference channel. Human, mouse or cynomolgus monkey GFRAL proteins (in a HBS-EP buffer) with 2-fold doubling dilutions was subsequently injected at a flow rate of 30 μL/min and the binding kinetics were evaluated at 25° C. The results are as follows (see Table 12)

In assay [2] the target is T1, Mouse GFRAL protein (Biacore analyte) (mouse, UniProt Q6SJE0 20-349, limits assumed).
T1 construct: also called mGFRAL
T1 sequence (looked up): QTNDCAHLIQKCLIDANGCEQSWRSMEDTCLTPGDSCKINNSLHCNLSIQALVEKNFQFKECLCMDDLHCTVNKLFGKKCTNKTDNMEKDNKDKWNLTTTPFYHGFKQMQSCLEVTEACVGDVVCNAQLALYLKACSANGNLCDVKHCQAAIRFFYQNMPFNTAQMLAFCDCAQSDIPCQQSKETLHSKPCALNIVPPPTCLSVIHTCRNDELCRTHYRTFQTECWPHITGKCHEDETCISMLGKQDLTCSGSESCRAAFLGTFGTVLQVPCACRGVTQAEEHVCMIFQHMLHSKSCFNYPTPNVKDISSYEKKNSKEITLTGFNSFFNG
The description is as above. The method, then: as §1, §2

Assay [3] addresses T2, Human GFRAL protein (Biacore analyte) (human, UniProt Q6UXV0 19-351, limits assumed).
T2 construct: also called hGFRAL
T2 sequence (looked up): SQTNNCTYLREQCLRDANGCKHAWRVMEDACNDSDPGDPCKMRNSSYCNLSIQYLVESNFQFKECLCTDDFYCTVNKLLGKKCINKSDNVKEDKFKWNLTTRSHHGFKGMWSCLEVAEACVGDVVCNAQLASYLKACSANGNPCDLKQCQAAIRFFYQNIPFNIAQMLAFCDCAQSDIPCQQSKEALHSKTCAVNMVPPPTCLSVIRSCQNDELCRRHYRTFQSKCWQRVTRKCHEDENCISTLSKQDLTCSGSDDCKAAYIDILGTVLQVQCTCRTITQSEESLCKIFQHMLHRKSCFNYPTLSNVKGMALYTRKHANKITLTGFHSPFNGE
The assay is described as above. The method, then:
as §1, §2

For assay [4], the target named is T3, Human GFRAL (hGFRAL) on HEK293 reporter cells with human RET (human, UniProt Q6UXV0 19-394).
T3 sequence (looked up): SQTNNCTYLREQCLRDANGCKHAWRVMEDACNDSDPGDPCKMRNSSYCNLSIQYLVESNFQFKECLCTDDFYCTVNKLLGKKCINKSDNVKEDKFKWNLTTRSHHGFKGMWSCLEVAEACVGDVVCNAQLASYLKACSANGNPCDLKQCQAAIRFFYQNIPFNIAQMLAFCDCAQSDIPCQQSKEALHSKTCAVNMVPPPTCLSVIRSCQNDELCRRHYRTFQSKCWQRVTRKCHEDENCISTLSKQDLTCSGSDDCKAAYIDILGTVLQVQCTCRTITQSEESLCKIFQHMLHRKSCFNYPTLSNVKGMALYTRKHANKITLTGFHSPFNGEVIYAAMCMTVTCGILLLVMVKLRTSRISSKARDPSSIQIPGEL
In words: cell-based or functional assay.

The target in assay [5] is T4, Mouse GFRAL (mGFRAL) on HEK293 reporter cells with mouse RET (mouse, UniProt Q6SJE0 20-393).
T4 sequence (looked up): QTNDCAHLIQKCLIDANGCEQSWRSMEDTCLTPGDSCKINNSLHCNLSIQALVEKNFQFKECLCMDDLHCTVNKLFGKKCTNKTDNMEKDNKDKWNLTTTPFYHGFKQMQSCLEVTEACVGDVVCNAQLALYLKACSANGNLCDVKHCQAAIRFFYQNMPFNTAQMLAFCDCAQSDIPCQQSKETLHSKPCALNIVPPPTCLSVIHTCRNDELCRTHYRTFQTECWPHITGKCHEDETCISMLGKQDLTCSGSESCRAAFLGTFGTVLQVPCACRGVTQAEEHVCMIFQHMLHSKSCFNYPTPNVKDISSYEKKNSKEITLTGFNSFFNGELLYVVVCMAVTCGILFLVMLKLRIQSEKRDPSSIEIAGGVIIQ
Briefly: cell-based or functional assay.

The target in assay [6] is T3, Human GFRAL (hGFRAL) on HEK293 reporter …. Briefly: cell-based or functional assay. The source holds these as a separate data set.
Assay [7] has as its target T4, Mouse GFRAL (mGFRAL) on HEK293 reporter …. In words: cell-based or functional assay. This is another data set of the same source.
The next assay addresses T5, Human GFRAL-His protein (human, UniProt Q6UXV0 19-351).
T5 construct: also called human GFRAL-His fusion protein; not shown: His tag
T5 sequence (looked up): T2 sequence (looked up)
Briefly: ELISA, antigen coated on plate, purified antibody titrated, HRP anti-mouse IgG detection. The method, then:
(§3) The ELISA assay had the following protocols. Human GFRAL-His protein, cynomolgus monkey GFRAL-His protein, or mouse GFRAL-Fc protein were coated on 96-well plates, and after blocking the wells with PBS/1% BSA solution, the hybridoma supernatant or purified antibodies were added to the reaction wells. After incubation for 1 hour at room temperature, HRP-labeled anti-mouse IgG (Fab region) antibody was added to the reaction wells to incubate for an additional hour at room temperature. After the substrate and stop solution were added successively, the OD₄₅₀ values were read. The OD₄₅₀ values were used to verify and assess the binding ability of the antibodies to the GFRAL proteins.

Assay [8] addresses Cynomolgus monkey GFRAL-His protein (cynomolgus monkey). The assay is described as above. On the procedure:
as §3

A further assay deals with T6, Mouse GFRAL-Fc protein (mouse, UniProt Q6SJE0 20-349, limits assumed).
T6 construct: not shown: Fc
T6 sequence (looked up): T1 sequence (looked up)
Described as above. On the procedure:
as §3

The target of assay [9] is T2, Human GFRAL protein (Biacore analyte). In words: Biacore SPR, antibody captured via anti-human Fc on CM5, GFRAL injected, 25 C. The method, then:
Binding affinity assays were performed for three antibody strains 168A7, 8E10 and 26D7 based on the Biacore affinity assay. The binding affinities of purified antibodies to human or mouse GFRAL were assessed by measuring the equilibrium dissociation constants (KD). The anti-human Fc antibody was immobilized in the flow cell of the CM5 chip according to the instructions of the amino-coupled kit (catalogue number: BR100050, Cytiva). Purified antibodies (˜300 RU) were captured on flow cells 2, 3 and 4 using flow cell 1 as a reference. Human or mouse GFRAL protein (in an HBS-EP buffer) was then injected at a flow rate of 30 μL/min and the binding kinetics were evaluated at 25° C. The results were as follows (FIGS. 1A-1C, Table 4)

Residue numbers refer to the chain shown, from its start. Where two headings read alike, the source gives them in different places.

B1: 26D7H3aL2c (antibody, V domains shown)
VH: QVQLVQSGAEVKKPGASVKISCKVSGYTFTDYGMNWVRQTPGQGLKWVGWINTYTGEPTYADDFKDRFTFTLDASTSTAYMELRSLRSDDTAVYFCARRYGYDAGIDAWGQGTLVTVSS
VL: EIVLTQSPGTLSLSPGERATLSCRASESVESYGNNLMHWYQQKPGQAPRLLIYLASYLESGVPDRFSGSGSGTDFTLTISRLEPEDFATYYCQQNNESPWTFGQGTKVEIK
notes: Humanized; also called humanized anti-GFRAL antibody 26D7H3aL2c
Consider B1, for which the dissociation constant (Kd) in [1] was found to be 0.131 nM; in assay [3] it was 0.0465 nM. For the same molecule, the koff worked out at 0.000193 s⁻¹ in assay [1], 0.000215 s⁻¹ in assay [2] and 0.000125 s⁻¹ in assay [3]. In addition, the “IC50 (nM), luciferase reporter gene assay, Human GFRAL/human RET” value (“IC50 (nM) … Human GFRAL/human RET” for short) in assay [4] stood at 8.3 nM. Besides, the “IC50 (nM), luciferase reporter gene assay, Mouse GFRAL/mouse RET” value (“IC50 (nM) … Mouse GFRAL/mouse RET” below) in assay [5] amounted to 1.9 nM.

B2: 174D6 (antibody, V domains shown)
VH: QVQLKQSGPGLVQPSQSLSITCTVSGFSLTSYGVHWVRQSPGKGLEWLGVIWSGGRTDYNAAFISRLNISKDSSKSQVFFKMNSLQADDTAIYYCARKGSSYYGLYYYGMDFWGQGTSVTVSS
VL: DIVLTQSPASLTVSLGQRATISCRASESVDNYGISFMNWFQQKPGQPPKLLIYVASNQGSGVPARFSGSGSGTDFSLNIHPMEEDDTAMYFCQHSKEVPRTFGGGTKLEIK
notes: Murine hybridoma antibody, purified
Take B2: the “IC50 (nM) … Human GFRAL/human RET” value in assay [6] came out at 104 nM. The “IC50 (nM) … Mouse GFRAL/mouse RET” value in [7] is over 694 nM. The EC50 with Human GFRAL-His protein came to 0.28 nM; in [8] it was 0.07 nM; with Mouse GFRAL-Fc protein, 0.14 nM.

B3: 174E10 (antibody, V domains shown)
VH: B2 VH with T57I, N68S, S73N, F112Y
VL: DIVMTQSPSSLTVTAGEKVTMSCKSSQSLLNSGNQKNYLTWYQQKSGQTPKLLIYWASTRESGVPDRFTGSGSGTDFTLTISSVQAEDLAVYYCQNDYGYPLTFGAGTKLELK
notes: as for B2
For the molecule B3, the “IC50 (nM) … Human GFRAL/human RET” value in assay [6] came to 37.2 nM. Moreover, the “IC50 (nM) … Mouse GFRAL/mouse RET” value in assay [7] is 105 nM. Moreover, the EC50 with Human GFRAL-His protein turned out to be 0.18 nM; in assay [8], 0.06 nM; with Mouse GFRAL-Fc protein, 0.12 nM.

B4: 168A7 (antibody, V domains shown)
VH: QVTLKESGPGILKPSQTLSLTCSFSGFSLSTSDMGVGWIRQPSGKGLEWLAHIWWDDDKYYNPSLKRQLTISKDNSRNQVFLKISSVDTTDTATYYCARLYDYDDEYYFDYWGQGTTLTVSS
VL: DIQMTQTKSSLSASLGDRVTISCRASQDSNNYLNWYQQKPDGTVKLLIYYTSRLHSGVPSRFSGSGSGTDYSLTISNLEHEDIATYFCQQGNTIPWTFGGGTKLEIK
notes: as for B2
In the case of B4, the “IC50 (nM) … Human GFRAL/human RET” value in assay [6] stood at 3.29 nM. In addition, in [7], the “IC50 (nM) … Mouse GFRAL/mouse RET” value was over 694 nM. In [9], this molecule yielded a dissociation constant Kd of 0.00145 nM and a koff of 7.06e-05 s⁻¹. Also, the EC50 in the assay with Human GFRAL-His protein is 1.87 nM. The same molecule showed a half-maximal effective concentration (EC50) in assay [8] of 0.09 nM.

B5: 8E10 (antibody, V domains shown)
VH: QVQLQQSGSELVRPGSSVKISCRASGYTFSNYWMNWVKQRPGQGLEWIGQIYPGDDDADYNGKFQGKATLTADKSSSTAYMQLNTLTSEDSAVYFCTRSGRRDFDYWGQGTTLTVSS
VL: NIVLTQSPASLAVSLGQRATISCRASESIDNYGNSFMHWYQQKPGQPPKLLIYRASNLESGVPARFSGSGSRTDFTLTIDPVEADDAATYYCQQNNEDPYTFGGGTKLEIK
notes: as for B2
With B5, in assay [6], the “IC50 (nM) … Human GFRAL/human RET” value turned out to be 3.33 nM. In addition, the “IC50 (nM) … Mouse GFRAL/mouse RET” value in assay [7] was over 694 nM. The equilibrium dissociation constant (Kd) in [9] turned out to be 0.0179 nM. The molecule further gave a koff in [9] of 0.000404 s⁻¹. For the same molecule, the values for the EC50 (in the assay with Human GFRAL-His protein; in assay [8]) were 0.05 nM and 0.06 nM, respectively.

B6: 165C5 (antibody, V domains shown)
VH: EVKLVESGGGLVKPGGSLKLSCAASGFTFSSYAMSWVRQTPEKRLEWVASITTGGSTYYLDSVRGRFTISRDNARNILSLQMSSLRSEDTAIYYCARSLIITATGFDYWGQGTTLTVSS
VL: DIVMTQSQKFMSISVGDRVNITCRASQDVGTAVAWYQQKPGQSPKLLIYSASNRYTGVPNRFTGSGSGTDFTLAISNMQSEDLADYFCQQYSIYYTFGGGTKLEIK
notes: as for B2
Consider B6, for which, in assay [6], the “IC50 (nM) … Human GFRAL/human RET” value worked out at 55.5 nM. For the same molecule, the “IC50 (nM) … Mouse GFRAL/mouse RET” value in assay [7] was 7.22 nM. In addition, the EC50 with Human GFRAL-His protein worked out at 0.27 nM; in [8] it was 0.03 nM; in the assay with Mouse GFRAL-Fc protein, 0.12 nM.

B7: 2D4 (antibody, V domains shown)
VH: EVNLVESGGGLVKPGGPLKLSCAASGFTFSSFVMSWVRQTPEKRLEWVASITSGGTTFYPDSVKGRFTISRDNARNILYLQMSNLRSGDTAMYYCARGPPQFSSLSMDYWGQGTSVTVSS
VL: DIVMTQSQKFMSTSVGDRITITCKASQNVGTAVSWFQQKPGQVPKLLIYSASNRYTGVPDRFTGSGSGTEFTLTISNIQSEDLADYFCQQYSSLFTFGSGTKLEIK
notes: as for B2
Take B7: in [6], the “IC50 (nM) … Human GFRAL/human RET” value was found to be 11.6 nM. Further, the “IC50 (nM) … Mouse GFRAL/mouse RET” value in assay [7] is 2.23 nM. Further, the EC50 with Human GFRAL-His protein worked out at 0.09 nM; in assay [8], 0.1 nM; in the assay with Mouse GFRAL-Fc protein, 0.08 nM.
